Where two headings read alike, the source gives them in different places.
T1: p73α (UniProt O15350 1-636)
T1 sequence: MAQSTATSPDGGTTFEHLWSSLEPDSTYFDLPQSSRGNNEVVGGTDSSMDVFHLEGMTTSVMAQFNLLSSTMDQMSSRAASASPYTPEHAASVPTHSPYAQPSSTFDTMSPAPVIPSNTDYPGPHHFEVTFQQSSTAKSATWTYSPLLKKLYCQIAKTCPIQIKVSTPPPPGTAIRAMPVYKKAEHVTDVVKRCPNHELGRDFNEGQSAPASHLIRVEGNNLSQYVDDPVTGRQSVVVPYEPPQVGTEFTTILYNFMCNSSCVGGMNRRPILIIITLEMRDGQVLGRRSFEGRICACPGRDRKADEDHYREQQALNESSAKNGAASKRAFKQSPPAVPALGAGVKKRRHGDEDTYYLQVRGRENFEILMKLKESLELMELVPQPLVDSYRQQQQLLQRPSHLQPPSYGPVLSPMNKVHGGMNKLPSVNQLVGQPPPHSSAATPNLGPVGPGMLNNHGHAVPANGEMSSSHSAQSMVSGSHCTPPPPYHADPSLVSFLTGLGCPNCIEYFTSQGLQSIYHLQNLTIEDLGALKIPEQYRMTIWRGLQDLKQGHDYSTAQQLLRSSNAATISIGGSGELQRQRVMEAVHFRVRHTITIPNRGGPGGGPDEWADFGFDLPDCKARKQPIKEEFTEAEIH

T2: p73γ (UniProt O15350-3 1-475)
T2 sequence: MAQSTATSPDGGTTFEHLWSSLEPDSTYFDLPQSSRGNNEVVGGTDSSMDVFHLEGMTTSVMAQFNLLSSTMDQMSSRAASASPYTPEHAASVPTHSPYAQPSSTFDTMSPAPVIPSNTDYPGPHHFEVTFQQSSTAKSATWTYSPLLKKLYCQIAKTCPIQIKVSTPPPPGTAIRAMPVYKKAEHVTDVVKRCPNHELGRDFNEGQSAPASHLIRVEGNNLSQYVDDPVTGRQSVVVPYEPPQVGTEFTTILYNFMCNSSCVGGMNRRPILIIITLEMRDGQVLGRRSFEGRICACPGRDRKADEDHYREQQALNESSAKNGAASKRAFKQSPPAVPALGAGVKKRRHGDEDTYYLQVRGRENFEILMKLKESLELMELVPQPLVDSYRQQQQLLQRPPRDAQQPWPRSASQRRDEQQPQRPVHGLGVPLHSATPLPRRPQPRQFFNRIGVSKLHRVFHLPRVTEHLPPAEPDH

T3: p73δ (UniProt O15350-4 1-403)
T3 sequence: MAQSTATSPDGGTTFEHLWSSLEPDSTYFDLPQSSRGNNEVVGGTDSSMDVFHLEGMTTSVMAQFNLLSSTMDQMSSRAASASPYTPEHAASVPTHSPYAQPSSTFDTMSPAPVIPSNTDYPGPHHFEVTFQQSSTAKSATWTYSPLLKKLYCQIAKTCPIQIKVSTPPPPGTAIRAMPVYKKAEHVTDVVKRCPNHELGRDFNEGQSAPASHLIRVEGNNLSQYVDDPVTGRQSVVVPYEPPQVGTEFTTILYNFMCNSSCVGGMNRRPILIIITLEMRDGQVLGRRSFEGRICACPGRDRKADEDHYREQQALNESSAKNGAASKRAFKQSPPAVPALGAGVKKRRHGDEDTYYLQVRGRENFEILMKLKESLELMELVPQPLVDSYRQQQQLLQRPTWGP

T4: p73β (UniProt O15350-2 1-499)
T4 sequence: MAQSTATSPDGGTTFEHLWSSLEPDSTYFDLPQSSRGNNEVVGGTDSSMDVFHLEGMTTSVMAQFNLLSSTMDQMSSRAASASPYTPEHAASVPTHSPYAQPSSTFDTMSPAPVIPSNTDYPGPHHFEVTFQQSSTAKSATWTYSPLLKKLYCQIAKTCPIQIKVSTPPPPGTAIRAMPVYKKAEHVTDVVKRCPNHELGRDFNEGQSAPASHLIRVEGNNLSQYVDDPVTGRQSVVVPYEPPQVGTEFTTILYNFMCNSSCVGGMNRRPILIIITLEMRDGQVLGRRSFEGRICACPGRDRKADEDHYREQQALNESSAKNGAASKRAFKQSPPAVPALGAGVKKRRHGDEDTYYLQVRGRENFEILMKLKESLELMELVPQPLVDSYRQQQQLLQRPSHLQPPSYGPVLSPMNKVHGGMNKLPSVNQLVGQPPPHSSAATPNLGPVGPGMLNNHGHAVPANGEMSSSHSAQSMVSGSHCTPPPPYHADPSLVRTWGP

B1: p21-5' site 66 bp (dsDNA)
DNA 1: AGCATTGGCTTTCTGGCCATCAGGAACATGTCCCAACATGTTGAGCTCTGGCATAGAAGAGGCGCT
DNA 2: AGCGCCTCTTCTATGCCAGAGCTCAACATGTTGGGACATGTTCCTGATGGCCAGAAAGCCAATGCT
B2: p21-5' site 28 bp (dsDNA)
DNA 1: TCAGGAACATGTCCCAACATGTTGAGCT
DNA 2: AGCTCAACATGTTGGGACATGTTCCTGA
B3: p53 consensus (dsDNA)
DNA 1: GGGTAGACATGCCTAGACATGCCTAAGCTCCC
DNA 2: GGGAGCTTAGGCATGTCTAGGCATGTCTACCC

Legend:
Experiment in all cases: EMSA
p73α+30 [1] = target: T5, p73α+30 (UniProt O15350 1-636+P04637:364-393, internal_change)
p73α [2] = target: T1, p73α
p73γ = target: T2, p73γ
p53 [3] = target: T6, p53 (human, UniProt P04637 1-393)
p73α+30 [4] = target: T5, p73α+30; remark: listed apart in the source
p53 [5] = target: T6, p53; remark: listed apart in the source
p73δ = target: T3, p73δ
p73β = target: T4, p73β
p73α [6] = target: T1, p73α; remark: listed apart in the source
p53 [7] = target: T6, p53; remark: listed apart in the source
p73α+30 [8] = target: T5, p73α+30; remark: listed apart in the source

T6 sequence (P04637 whole entry): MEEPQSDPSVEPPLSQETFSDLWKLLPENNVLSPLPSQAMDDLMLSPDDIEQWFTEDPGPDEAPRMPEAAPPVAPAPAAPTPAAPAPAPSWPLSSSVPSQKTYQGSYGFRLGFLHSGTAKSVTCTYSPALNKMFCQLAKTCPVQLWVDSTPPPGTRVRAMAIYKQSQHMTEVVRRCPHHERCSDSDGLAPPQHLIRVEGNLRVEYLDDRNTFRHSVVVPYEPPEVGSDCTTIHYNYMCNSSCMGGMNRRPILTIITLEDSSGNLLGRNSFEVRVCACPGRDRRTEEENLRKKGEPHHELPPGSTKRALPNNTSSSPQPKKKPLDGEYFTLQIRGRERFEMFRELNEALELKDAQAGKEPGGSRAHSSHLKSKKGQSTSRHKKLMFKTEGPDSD

Row | Binder | binding signal (p73α+30 [1]) | binding result (p73α [2]) | binding result (p73γ) | binding result (p53 [3]) | binding signal (p73α+30 [4]) | binding result (p53 [5]) | binding result (p73δ) | binding result (p73β) | binding result (p73α [6]) | binding result (p53 [7]) | binding result (p73α+30 [8])
1 | B1 | ~5 fold vs 28 bp oligonucleotide | binds | binds | binds | – | – | – | – | – | – | –
2 | B2 | – | binds | – | – | 1 fold (reference for 66 bp) | binds | – | – | – | – | –
3 | B3 | – | – | – | – | – | – | binds | binds | binds | binds | binds

— publication PMC2330244
